The record followed here is paper PMC11784222.

Assay [1] concerns the target N protein in the pVC vector (pVC-N) (HP-PRRSV-2 strain HuN4). The assay can be described thus: split reporter (BiFC, NanoBiT); BiFC in HEK293T cotransfected with pVN and pVC plasmids, 24 hpt; YFP signal by confocal microscopy and ratio of YFP-positive cells by flow cytometry.
Assay [2] has as its target GP5 in the pVC vector (pVC-GP5) (HP-PRRSV-2 strain HuN4). The description is as above.

As for “nsp2 in the pVN vector (pVN-nsp2) (natural protein)”, the percent of fluorescence-positive cells (BiFC) in assay [1] turned out to be 32.1%.
For the substance “N protein in the pVN vector (pVN-N) (natural protein)”, in assay [2], the percent of fluorescence-positive cells (BiFC) was found to be 3.87%.
